Measurements taken from article PMC3162126.

How the values were obtained:
[1] = target: T1, AidB (Escherichia coli, UniProt P33224 1-541); assay: competition
T1 sequence: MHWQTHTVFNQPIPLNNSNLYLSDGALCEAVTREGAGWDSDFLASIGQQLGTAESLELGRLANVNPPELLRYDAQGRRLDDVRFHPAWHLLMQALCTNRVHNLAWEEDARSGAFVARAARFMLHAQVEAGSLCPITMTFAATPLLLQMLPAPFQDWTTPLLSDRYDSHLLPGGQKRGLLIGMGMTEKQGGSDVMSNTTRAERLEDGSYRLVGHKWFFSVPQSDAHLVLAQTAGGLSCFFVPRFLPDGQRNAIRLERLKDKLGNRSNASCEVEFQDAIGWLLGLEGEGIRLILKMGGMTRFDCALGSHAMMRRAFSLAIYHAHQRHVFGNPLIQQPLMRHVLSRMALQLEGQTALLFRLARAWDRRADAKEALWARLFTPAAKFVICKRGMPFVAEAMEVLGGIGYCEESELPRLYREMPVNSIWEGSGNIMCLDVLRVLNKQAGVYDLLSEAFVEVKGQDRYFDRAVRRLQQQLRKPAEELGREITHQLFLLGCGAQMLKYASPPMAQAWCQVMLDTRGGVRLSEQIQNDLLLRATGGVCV

[2] = target: T1, AidB; assay: EMSA
[3] = target: T1, AidB; assay: competition; remark: listed apart in the source

B1: rrnB P1ΔUP (-UP), unlabelled competitor (dsDNA)
DNA 1: CCTCTTGTCAGGCCGGAATAACTCCCTATAAT
DNA 2: ATTATAGGGAGTTATTCCGGCCTGACAAGAGG
binding result [1]: no binding

B2: rrnB P1wt (+UP), biotinylated probe (dsDNA)
DNA 1: AGAAAATTATTTTAAATTTCCTCTTGTCAGGCCGGAATAACTCCCTATAAT
DNA 2: ATTATAGGGAGTTATTCCGGCCTGACAAGAGGAAATTTAAAATAATTTTCT
binding result [2]: binds

B3: rrnB P1wt (+UP), unlabelled competitor (dsDNA)
DNA 1: B2 DNA 1
DNA 2: B2 DNA 2
binding result [3]: binds
